In patent US20160355588A1 (Zymeworks, published 2016):
Where two headings read alike, the source gives them in different places.

Tests used:
Test in all cases: cell-based or functional assay
CD19 on Raji B cells [1] = biological target: T1, CD19 on Raji B cells (human, UniProt P15391 20-556)
T1 sequence (looked up): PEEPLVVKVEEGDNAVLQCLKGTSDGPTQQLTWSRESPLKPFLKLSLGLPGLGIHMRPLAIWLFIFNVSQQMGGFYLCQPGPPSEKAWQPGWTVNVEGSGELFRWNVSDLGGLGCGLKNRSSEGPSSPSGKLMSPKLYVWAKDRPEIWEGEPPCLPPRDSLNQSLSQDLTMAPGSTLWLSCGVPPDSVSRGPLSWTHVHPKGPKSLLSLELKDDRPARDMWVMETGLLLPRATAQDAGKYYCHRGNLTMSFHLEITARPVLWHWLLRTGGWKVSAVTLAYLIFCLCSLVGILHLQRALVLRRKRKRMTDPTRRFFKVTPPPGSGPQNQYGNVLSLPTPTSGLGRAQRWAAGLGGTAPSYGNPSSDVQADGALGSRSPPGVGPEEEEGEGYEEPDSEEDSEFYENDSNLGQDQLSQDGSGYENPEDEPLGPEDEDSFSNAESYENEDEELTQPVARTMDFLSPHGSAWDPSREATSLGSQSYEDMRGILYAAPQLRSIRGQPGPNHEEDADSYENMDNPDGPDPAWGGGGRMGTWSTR

CD20 on Raji B cells [2] = biological target: T2, CD20 on Raji B cells (human, UniProt P11836 1-297)
T2 sequence (looked up): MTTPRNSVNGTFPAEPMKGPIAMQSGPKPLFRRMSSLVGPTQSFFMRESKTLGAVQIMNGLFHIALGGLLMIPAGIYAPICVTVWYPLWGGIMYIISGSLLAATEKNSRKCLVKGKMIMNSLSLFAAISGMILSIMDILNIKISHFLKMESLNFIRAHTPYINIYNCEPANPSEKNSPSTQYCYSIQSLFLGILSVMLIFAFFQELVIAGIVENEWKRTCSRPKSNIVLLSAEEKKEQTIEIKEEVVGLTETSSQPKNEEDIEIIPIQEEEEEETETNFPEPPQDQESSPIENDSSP

CD19 on Raji B cells [3] = biological target: T1, CD19 on Raji B cells; remark: listed apart in the source
CD20 on Raji B cells [4] = biological target: T2, CD20 on Raji B cells; remark: listed apart in the source

B1: v5852 (bispecific antibody, human IgG1, kappa, L234A L235A)
heavy: QVQLVQSGGGVVQPGRSLRLSCKASGYTFTRYTMHWVRQAPGKGLEWIGYINPSRGYTNYNQKVKDRFTISRDNSKNTAFLQMDSLRPEDTGVYFCARYYDDHYCLDYWGQGTPVTVSSASTKGPSVFPLAPSSKSTSGGTAALGCLVKDYFPEPVTVSWNSGALTSGVHTFPAVLQSSGLYSLSSVVTVPSSSLGTQTYICNVNHKPSNTKVDKKVEPKSCDKTHTCPPCPAPELLGGPSVFLFPPKPKDTLMISRTPEVTCVVVDVSHEDPEVKFNWYVDGVEVHNAKTKPREEQYNSTYRVVSVLTVLHQDWLNGKEYKCKVSNKALPAPIEKTISKAKGQPREPQVYVYPPSRDELTKNQVSLTCLVKGFYPSDIAVEWESNGQPENNYKTTPPVLDSDGSFALVSKLTVDKSRWQQGNVFSCSVMHEALHNHYTQKSLSLSPGK
chain: EVQLVESGGGLVKPGGSLKLSCAASGYTFTSYVMHWVRQAPGKGLEWIGYINPYNDGTKYNEKFQGRVTISSDKSISTAYMELSSLRSEDTAMYYCARGTYYYGTRVFDYWGQGTLVTVSSGGGGSGGGGSGGGGSDIVMTQSPATLSLSPGERATLSCRSSKSLQNVNGNTYLYWFQQKPGQSPQLLIYRMSNLNSGVPDRFSGSGSGTEFTLTISSLEPEDFAVYYCMQHLEYPITFGAGTKLEIKAAEPKSSDKTHTCPPCPAPEAAGGPSVFLFPPKPKDTLMISRTPEVTCVVVSVSHEDPEVKFNWYVDGVEVHNAKTKPREEQYNSTYRVVSVLTVLHQDWLNGKEYKCKVSNKALPAPIEKTISKAKGQPREPQVYVLPPSRDELTKNQVSLLCLVKGFYPSDIAVEWESNGQPENNYLTWPPVLDSDGSFFLYSKLTVDKSRWQQGNVFSCSVMHEALHNHYTQKSLSLSPGK
light: DIQMTQSPSSLSASVGDRVTITCSASSSVSYMNWYQQTPGKAPKRWIYDTSKLASGVPSRFSGSGSGTDYTFTISSLQPEDIATYYCQQWSSNPFTFGQGTKLQITRTVAAPSVFIFPPSDEQLKSGTASVVCLLNNFYPREAKVQWKVDNALQSGNSQESVTEQDSKDSTYSLSSTLTLSKADYEKHKVYACEVTHQGLSSPVTKSFNRGEC
In the case of B1, the “% Bridging Jurkat/Raji (whole cell FACS T:B bridging; CD3 on Jurkat bridged to the B cell antigen on Raji)” value (from here on “% Bridging Jurkat/Raji”) (CD19 on Raji B cells [1]) is reported as 30.4%.

B2: v6325 (bispecific antibody, human IgG1, kappa)
heavy: QVQLVQSGGGVVQPGRSLRLSCKASGYTFTRYTMHWVRQAPGKGLEWIGYINPSRGYTNYNQKVKDRFTISRDNSKNTAFLQMDSLRPEDTGVYFCARYYDDHYCLDYWGQGTPVTVSSASTKGPSVFPLAPSSKSTSGGTAALGCLVKDYFPEPVTVSWNSGALTSGVHTFPAVLQSSGLYSLSSVVTVPSSSLGTQTYICNVNHKPSNTKVDKKVEPKSCDKTHTCPPCPAPELLGGPSVFLFPPKPKDTLMISRTPEVTCVVVDVSHEDPEVKFNWYVDGVEVHNAKTKPREEQYNSTYRVVSVLTVLHQDWLNGKEYKCKVSNKALPAPIEKTISKAKGQPREPQVYVYPPSRDELTKNQVSLTCLVKGFYPSDIAVEWESNGQPENNYKTTPPVLDSDGSFALVSKLTVDKSRWQQGNVFSCSVMHEALHNHYTQKSLSLSPGK
chain: not shown
light: DIQMTQSPSSLSASVGDRVTITCSASSSVSYMNWYQQTPGKAPKRWIYDTSKLASGVPSRFSGSGSGTDYTFTISSLQPEDIATYYCQQWSSNPFTFGQGTKLQITRTVAAPSVFIFPPSDEQLKSGTASVVCLLNNFYPREAKVQWKVDNALQSGNSQESVTEQDSKDSTYSLSSTLTLSKADYEKHKVYACEVTHQGLSSPVTKSFNRGEC
With B2 the “% Bridging Jurkat/Raji” value (CD20 on Raji B cells [2]) was 15.7%.

B3: v5851 (bispecific antibody)
chain: not shown
heavy: not shown
light: DIVMTQSPATLSLSPGERATLSCRSSKSLQNVNGNTYLYWFQQKPGQSPQLLIYRMSNLNSGVPDRFSGSGSGTEFTLTISSLEPEDFAVYYCMQHLEYPITFGAGTKLEIKRTVAAPSVFIFPPSDEQLKSGTASVVCLLNNFYPREAKVQWKVDNALQSGNSQESVTEQDSKDSTYSLSSTLTLSKADYEKHKVYACEVTHQGLSSPVTKSFNRGEC
B3 was tested, and the “% Bridging Jurkat/Raji” value (CD19 on Raji B cells [3]) was 23.2%.

B4: v1821 (bispecific antibody, human IgG1, kappa)
heavy 1: QVQLVQSGGGVVQPGRSLRLSCKASGYTFTSYTMHWVRQAPGKGLEWIGYINPSSGYTKYNQKFKDRFTISADKSKSTAFLQMDSLRPEDTGVYFCARWQDYDVYFDYWGQGTPVTVSSASTKGPSVFPLAPSSKSTSGGTAALGCLVKDYFPEPVTVSWNSGALTSGVHTFPAVLQSSGLYSLSSVVTVPSSSLGTQTYICNVNHKPSNTKVDKKVEPKSCDKTHTCPPCPAPELLGGPSVFLFPPKPKDTLMISRTPEVTCVVVDVSHEDPEVKFNWYVDGVEVHNAKTKPREEQYNSTYRVVSVLTVLHQDWLNGKEYKCKVSNKALPAPIEKTISKAKGQPREPQVYVYPPSRDELTKNQVSLTCLVKGFYPSDIAVEWESNGQPENNYKTTPPVLDSDGSFALVSKLTVDKSRWQQGNVFSCSVMHEALHNHYTQKSLSLSPGK
heavy 2: not shown
light: QIVLSQSPAILSASPGEKVTMTCRASSSVSYIHWFQQKPGSSPKPWIYATSNLASGVPVRFSGSGSGTSYSLTISRVEAEDAATYYCQQWTSNPPTFGGGTKLEIKRTVAAPSVFIFPPSDEQLKSGTASVVCLLNNFYPREAKVQWKVDNALQSGNSQESVTEQDSKDSTYSLSSTLTLSKADYEKHKVYACEVTHQGLSSPVTKSFNRGEC
For B4, the “% Bridging Jurkat/Raji” value (CD20 on Raji B cells [4]) was 7.3%.
